In the supplement of paper PMC10567573:

B1: FBF1 (parent)
chain: YQRPQDSEDMWGDEDFTFGAYQPT

Variants of: B1
Assay: protein stability index of a GFP-peptide fusion (GPS, HEK-293T) (PSI 1-6); higher = more stable
Conditions: c terminus: a fixed tail appended
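Note: lentivirally expressed fusions sorted by FACS into six bins by GFP to DsRed ratio, PSI derived from sequencing read proportions per bin multiplied by bin number.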

Protein stability index of substitutions, site by site:
Q5: G 2.99, N 3.03, Y 2.57, I 2.26, C 2.26, A 2.49, L 2.09, P 2.52, D 3.79, T 3.18, K 2.01, R 2.16, E 3.76, W 2.03, F 2.64, V 2.56, H 2.44, M 2.44, S 2.98
S7: H 2.58, F 2.41, P 3.13, E 3.29, C 2.34, K 3.01, V 2.82, R 2.71, A 2.68, M 2.37, T 2.35, Q 2.9, G 2.47, I 2.99, D 3.68, W 1.73, L 2.87, Y 1.74, N 3.2
R3: N 3.71, S 3.11, V 3.5, Q 4.01, Y 3.09, G 3.4, D 4.36, E 4.79, W 2.82, F 3.12, H 3.49, M 3.2, A 3.44, T 2.62, L 3.46, I 2.87, C 3.12, P 3.87, K 3.64
Y1: L 3.87, W 3.93, D 4.87, A 4.84, G 4.79, M 4.6, V 3.92, P 4.71, S 4.52, I 3.95, F 2.58, Q 4.23, T 4.66, H 4.76, R 3.94, E 4.84, N 4.62, K 4.24, C 3.54
P4: N 2.26, L 2.74, W 2.09, M 2.74, R 2.26, Q 2.54, G 2.69, D 3.39, A 2.45, H 2.97, I 2.68, Y 3.04, F 2.54, V 2.49, C 2.7, E 3.56, T 2.57, K 2.29, S 2.54
E8: R 1.58, H 2.01, D 2.47, I 1.95, K 1.78, M 2.42, Q 1.81, G 1.98, Y 2.31, C 1.99, L 2.1, F 2.13, V 1.7, A 1.9, W 1.58, S 2.32, N 2, T 2.29, P 1.65
Q2: N 3.14, F 3.25, A 2.79, V 1.78, W 2.38, K 3.81, I 2.08, Y 3.65, H 2.21, P 3.05, S 3.53, G 3.76, R 3.83, D 4.81, C 2.7, T 3.54, M 3.56, L 3.45, E 4.26
D9: A 2.17, L 1.44, R 2.34, P 2.02, S 2.11, C 1.55, I 2.13, N 2.48, M 1.55, Q 2.23, F 1.92, K 2.01, G 2.47, E 3.21, H 2.03
D6: F 1.68, A 2.05, G 1.77, R 2.04, T 2.53, Q 2.26, I 1.98, E 2.59, W 1.64, K 1.94, S 2.24, L 2.17, H 1.84, V 2.12, N 2.25, Y 2.06, C 2.06, P 2.3, M 2.32
